This is an account of results in patent publication US20090286314A1 (Innovent, published 2009).

Data set [1] concerns the molecule itself. In words: gel chromatography, HiPrep Sephacryl S-200, high protein concentrations (self-association). The source says:
(§1) The wild-type fluorescent proteins have a tendency to self-aggregate and form tetramers. Among the limited number of new FPs that we so far have analyzed, no monomeric variant has been observed, but the tendency to self-aggregate appears to vary among individual variants. In order to generate a pure monomeric variant, which would be advantageous for certain applications, the protein R-5 (SEQ ID NO: 79) was subjected to limited mutagenesis after extensive 3-D modelling. Three amino acid residues were chosen as suitable candidates for mutagenesis, and three mutants with single, double and triple mutations were constructed and custom made by an external laboratory. After expression in E. coli and purification their aggregation state were analyzed by gel-chromatography on a HiPrep Sephacryl S-200 column. The conditions used (i.e. high protein concentrations) were chosen to promote aggregation, and EGFP, which is a weak forming dimer, did elute as a peak with an apparent molecular weight of ˜60 kDa, i.e. as a dimer.

Data set [2] deals with the molecule itself. In words: gel chromatography, HiPrep Sephacryl S-200, high protein concentrations chosen to promote aggregation (self-association).
Text: as §1

B1: double mutant of R-5 (Mut B) (other)
chain: MSLPATHDLHISGSINGHEFDLEGSGKGNAKEGYQELHLKSNKGDLSFSPWILVPNIGYGFYQYLPFPDGAMSPYQAAMHDGSGYVMHRSMQFEDGAMLHSDHRYIYKGNHIKGEFRLKGSGFPADGPVMTNSLTAADWCVDKLLYPNDNTIIGKFDWTYTTTSGKRYQSDVQTTVTFGKPIAADILKKQPMFVFRKVELKHTKTELNFKQWQKAFQDIA
notes: Expressed in E. coli and purified; Eluted as a dimer; also called dimeric mutant
Turning to B1, the binding result in data set [1] is “binds”.

B2: triple mutant of R-5 (Mut C) (other)
chain: MSLPATHDLHISGSINGHEFDLEGSGKGNAKEGYQELHLKSNKGDLSFSPWILVPNIGYGFYQYLPFPDGAMSPYQAAMHDGSGYVMHRSMQFEDGAMLHSDHRYIYKGNHIKGEFRLKGSGFPADGPVMTNSLTAADWCVDKLLYPNDNTIIGKFKWTYTTTSGKRYQSDVQTTVTFGKPIAADILKKQPMFVFRKVELKHTKTELNFKQWQKAFQDIA
notes: Expressed in E. coli and purified; Eluted as a monomer; also called R-5C; monomeric mutant
Regarding B2, in data set [2], the binding result is “no binding”.
